Results from article PMC5207133.
Read-outs that look alike come from different tables or passages of the source.

Key:
Ku70/80 heterodimer;APLF [1] = molecular target: T1, Ku70/80 heterodimer;APLF (human (HeLa cells);human, UniProt P12956;P13010;Q8IW19 1-609;1-732;1-511, |); settings: protein: native;recombinant; tags: ;GST removed by PreScission protease; copies: 1;1;1; 20-bp duplex with stem-loop at one end and 5-nt overhang at the other
[2] = molecular target: T2, Ku70/80 heterodimer;DNA-PKcs;APLF (human (HeLa cells);human (HeLa …, UniProt P12956;P13010;P78527;Q8IW19 1-609;1-732;1-4128;1-511, ||)); settings: protein: native;native;recombinant; tags: ;;GST removed by PreScission protease; copies: 1;1;1;1; 20-bp duplex with stem-loop at one end and 5-nt overhang at the other
[3] = molecular target: T3, Ku70/80 heterodimer;DNA-PKcs (human (HeLa cells);human (HeLa cells), UniProt P12956;P13010;P78527 1-609;1-732;1-4128, |); settings: protein: native;native; tags: ;; copies: 1;1;1; 20-bp duplex with stem-loop at one end and 5-nt overhang at the other
[4] = molecular target: Ku70/80 heterodimer;XRCC4-DNA ligase IV (X4L4) (human (HeLa cells);human, UniProt P12956;P13010;Q13426;P49917 1-609;1-732;1-336;1-911, |); settings: protein: native;recombinant; tags: ;; copies: 1;1;2;1; 20-bp duplex with stem-loop at one end and 5-nt overhang at the other
Ku70/80 heterodimer;XRCC4-DNA ligase IV (X4L4), sequence (P12956 whole entry, chain 1 of 4): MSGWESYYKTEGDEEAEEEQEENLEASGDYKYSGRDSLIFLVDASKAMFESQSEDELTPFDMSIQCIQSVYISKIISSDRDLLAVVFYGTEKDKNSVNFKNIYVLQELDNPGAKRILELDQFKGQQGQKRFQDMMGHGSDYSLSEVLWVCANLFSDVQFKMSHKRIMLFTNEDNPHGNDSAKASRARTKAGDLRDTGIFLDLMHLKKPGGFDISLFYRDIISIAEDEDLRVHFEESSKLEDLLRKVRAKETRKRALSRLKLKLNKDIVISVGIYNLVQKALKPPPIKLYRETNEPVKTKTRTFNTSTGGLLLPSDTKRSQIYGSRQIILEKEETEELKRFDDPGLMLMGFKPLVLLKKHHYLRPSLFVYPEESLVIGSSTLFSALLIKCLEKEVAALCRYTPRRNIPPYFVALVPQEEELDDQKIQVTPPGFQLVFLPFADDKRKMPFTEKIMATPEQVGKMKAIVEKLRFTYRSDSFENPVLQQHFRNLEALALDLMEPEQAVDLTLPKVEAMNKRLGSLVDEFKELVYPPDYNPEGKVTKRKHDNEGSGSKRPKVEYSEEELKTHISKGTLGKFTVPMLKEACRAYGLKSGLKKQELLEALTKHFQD
Ku70/80 heterodimer;XRCC4-DNA ligase IV (X4L4), sequence (P13010 whole entry, chain 2 of 4): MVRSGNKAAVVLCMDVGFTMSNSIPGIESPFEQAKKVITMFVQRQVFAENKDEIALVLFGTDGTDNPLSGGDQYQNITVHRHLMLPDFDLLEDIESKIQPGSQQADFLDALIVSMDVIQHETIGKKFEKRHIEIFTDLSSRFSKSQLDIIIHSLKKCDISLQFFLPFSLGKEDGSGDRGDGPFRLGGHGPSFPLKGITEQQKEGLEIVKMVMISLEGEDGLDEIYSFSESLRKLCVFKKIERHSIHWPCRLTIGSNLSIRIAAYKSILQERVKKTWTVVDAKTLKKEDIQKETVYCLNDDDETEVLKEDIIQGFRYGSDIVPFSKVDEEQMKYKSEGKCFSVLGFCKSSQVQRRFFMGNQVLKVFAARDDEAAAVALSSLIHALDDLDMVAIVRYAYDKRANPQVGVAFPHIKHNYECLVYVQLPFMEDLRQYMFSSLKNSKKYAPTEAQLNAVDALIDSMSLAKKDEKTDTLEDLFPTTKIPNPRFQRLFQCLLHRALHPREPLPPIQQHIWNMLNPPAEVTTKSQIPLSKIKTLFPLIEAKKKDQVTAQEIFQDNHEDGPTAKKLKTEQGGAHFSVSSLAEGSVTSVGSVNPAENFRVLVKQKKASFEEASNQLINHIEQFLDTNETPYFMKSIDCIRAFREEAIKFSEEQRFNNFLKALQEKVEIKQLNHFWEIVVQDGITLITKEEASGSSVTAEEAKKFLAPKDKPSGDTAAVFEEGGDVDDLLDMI
Ku70/80 heterodimer;XRCC4-DNA ligase IV (X4L4), sequence (Q13426 whole entry, chain 3 of 4): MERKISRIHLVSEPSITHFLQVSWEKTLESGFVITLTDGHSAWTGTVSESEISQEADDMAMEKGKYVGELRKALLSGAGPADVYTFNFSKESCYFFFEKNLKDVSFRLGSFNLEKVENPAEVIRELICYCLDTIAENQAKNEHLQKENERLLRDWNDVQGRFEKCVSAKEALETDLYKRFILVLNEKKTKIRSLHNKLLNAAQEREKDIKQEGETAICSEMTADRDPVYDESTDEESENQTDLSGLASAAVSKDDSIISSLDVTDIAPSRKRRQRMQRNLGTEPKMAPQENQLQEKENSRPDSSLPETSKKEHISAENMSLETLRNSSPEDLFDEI
Ku70/80 heterodimer;XRCC4-DNA ligase IV (X4L4), sequence (P49917 whole entry, chain 4 of 4): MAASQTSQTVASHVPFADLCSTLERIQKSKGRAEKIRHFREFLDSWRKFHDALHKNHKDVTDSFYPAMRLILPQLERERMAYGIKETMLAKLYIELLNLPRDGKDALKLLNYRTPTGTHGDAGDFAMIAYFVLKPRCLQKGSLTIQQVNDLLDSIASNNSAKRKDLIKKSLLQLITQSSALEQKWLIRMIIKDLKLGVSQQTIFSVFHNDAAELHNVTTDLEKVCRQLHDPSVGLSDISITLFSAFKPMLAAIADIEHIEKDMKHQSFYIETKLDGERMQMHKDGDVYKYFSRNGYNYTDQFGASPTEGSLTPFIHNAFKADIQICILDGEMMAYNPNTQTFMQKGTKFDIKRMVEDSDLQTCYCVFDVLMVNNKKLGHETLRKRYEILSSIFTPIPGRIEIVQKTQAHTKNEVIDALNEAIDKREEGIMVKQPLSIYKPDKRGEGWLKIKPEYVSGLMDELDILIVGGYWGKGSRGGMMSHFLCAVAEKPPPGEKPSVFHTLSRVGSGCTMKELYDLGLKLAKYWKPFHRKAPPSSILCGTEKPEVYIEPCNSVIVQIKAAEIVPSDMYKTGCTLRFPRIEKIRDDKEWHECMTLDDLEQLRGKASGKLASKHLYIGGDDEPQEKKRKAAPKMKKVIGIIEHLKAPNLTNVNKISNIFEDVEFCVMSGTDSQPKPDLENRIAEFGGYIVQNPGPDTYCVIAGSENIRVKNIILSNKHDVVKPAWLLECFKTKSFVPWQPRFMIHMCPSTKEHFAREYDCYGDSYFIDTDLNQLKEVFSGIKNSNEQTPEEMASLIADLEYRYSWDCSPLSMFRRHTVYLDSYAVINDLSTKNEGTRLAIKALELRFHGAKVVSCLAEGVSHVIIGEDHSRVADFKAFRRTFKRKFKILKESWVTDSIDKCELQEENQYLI

APLF [5] = molecular target: T4, APLF (human, UniProt Q8IW19 1-511); settings: protein: recombinant; tags: GST removed by PreScission protease; 20-bp duplex with stem-loop at one end and 5-nt overhang at the other
Ku70/80 heterodimer [6] = molecular target: T5, Ku70/80 heterodimer (human (HeLa cells), UniProt P12956;P13010 1-609;1-732); settings: protein: native; copies: 1;1; 20-bp duplex with stem-loop at one end and 5-nt overhang at the other
T5 sequence (P12956 whole entry, chain 1 of 2): as the sequence (P12956 whole entry, chain 1 of 4) above
T5 sequence (P13010 whole entry, chain 2 of 2): as the sequence (P13010 whole entry, chain 2 of 4) above

[7] = molecular target: T6, Ku70/80 heterodimer;XRCC4-DNA ligase IV (X4L4);APLF (human (HeLa cells);human;human, UniProt P12956;P13010;Q13426;P49917;Q8IW19 1-609;1-732;1-336;1-911;1-511, ||); settings: protein: native;recombinant;recombinant; tags: ;;GST removed by PreScission protease; copies: 1;1;2;1;1; 20-bp duplex with stem-loop at one end and 5-nt overhang at the other
[8] = molecular target: XRCC4-DNA ligase IV (X4L4) (human, UniProt Q13426;P49917 1-336;1-911); settings: protein: recombinant; chain copies: 2;1; 20-bp duplex with stem-loop at one end and 5-nt overhang at the other
XRCC4-DNA ligase IV (X4L4), sequence (Q13426 whole entry, chain 1 of 2): as the sequence (Q13426 whole entry, chain 3 of 4) above
XRCC4-DNA ligase IV (X4L4), sequence (P49917 whole entry, chain 2 of 2): as the sequence (P49917 whole entry, chain 4 of 4) above

[9] = molecular target: T6, Ku70/80 heterodimer;XRCC4-DNA ligase IV …; settings: protein: native;recombinant;recombinant; tags: ;;GST removed by PreScission protease; copies: 1;1;2;1;1; two stem-loop duplexes (strands 1+2, 3+4) annealing via complementary 10-nt A/T overhangs
[10] = molecular target: T2, Ku70/80 heterodimer;DNA-PKcs;APLF; settings: protein: native;native;recombinant; tags: ;;GST removed by PreScission protease; copies: 1;1;1;1; label: 3'-FAM on strand 1; blunt
APLF [11] = molecular target: T4, APLF; settings: protein: recombinant; tags: GST removed by PreScission protease; label: 3'-FAM on strand 1; blunt
[12] = molecular target: T3, Ku70/80 heterodimer;DNA-PKcs; settings: protein: native;native, tags: ;, copies: 1;1;1, blunt
Ku70/80 heterodimer;APLF [13] = molecular target: T1, Ku70/80 heterodimer;APLF; settings: protein: native;recombinant, tags: ;GST removed by PreScission protease, copies: 1;1;1, blunt
Ku70/80 heterodimer [14] = molecular target: T5, Ku70/80 heterodimer; settings: protein: native; copies: 1;1; label: 3'-FAM on strand 1; blunt
[15] = molecular target: T2, Ku70/80 heterodimer;DNA-PKcs;APLF; settings: protein: native;native;recombinant; tags: ;;GST removed by PreScission protease; copies: 1;1;1;1; label: 3'-FAM on strand 2; blunt
Ku70/80 heterodimer [16] = molecular target: T5, Ku70/80 heterodimer; settings: protein: native; copies: 1;1; label: 3'-FAM on strand 2; blunt

T1 sequence (P12956 whole entry, chain 1 of 3): as the sequence (P12956 whole entry, chain 1 of 4) above
T1 sequence (P13010 whole entry, chain 2 of 3): as the sequence (P13010 whole entry, chain 2 of 4) above
T1 sequence (Q8IW19 whole entry, chain 3 of 3): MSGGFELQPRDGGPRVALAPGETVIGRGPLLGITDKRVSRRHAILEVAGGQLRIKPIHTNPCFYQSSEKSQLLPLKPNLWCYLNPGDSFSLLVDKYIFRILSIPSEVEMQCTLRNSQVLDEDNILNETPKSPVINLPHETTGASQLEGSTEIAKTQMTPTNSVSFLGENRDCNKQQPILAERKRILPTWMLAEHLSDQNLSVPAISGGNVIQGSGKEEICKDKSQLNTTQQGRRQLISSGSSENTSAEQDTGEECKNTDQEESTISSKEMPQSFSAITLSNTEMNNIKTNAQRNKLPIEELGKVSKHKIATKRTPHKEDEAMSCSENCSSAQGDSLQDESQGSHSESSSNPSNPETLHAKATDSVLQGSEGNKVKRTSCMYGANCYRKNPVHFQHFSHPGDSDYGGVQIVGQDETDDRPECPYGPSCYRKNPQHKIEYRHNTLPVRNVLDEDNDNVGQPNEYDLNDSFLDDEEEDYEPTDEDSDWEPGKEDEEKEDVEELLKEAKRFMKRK

B1: 20bpDNA (stem-loop A) (structured_DNA)
DNA 1: CCCACCCAAAAATCAATAATCGACCCTTTCGACCCGCGC
DNA 2: GCGCGGGTTATTTGATTTTTGGGTGGGGTCGA
Ku70/80 heterodimer;APLF [1]
  binding result: binds
[2]
  binding result: binds
[3]
  binding result: binds
[4]
  binding result: binds
APLF [5]
  binding result: no binding
Ku70/80 heterodimer [6]
  binding result: binds
[7]
  binding result: binds
[8]
  binding result: no binding

B2: 20bpDNA-10nt (stem-loop B plus complementary stem-loop) (structured_DNA)
DNA 1: CCCACCCAAAAATCAATAATCGACCCTTTCGACCCGCGC
DNA 2: GCGCGGGTTATTTGATTTTTGGGTGGGAAAAAAAAAA
DNA 3: TTTTTTTTTTCCCACCCAAAAATCAAATAATCGACCCTTTCGACCCGCGC
DNA 4: GCGCGGGTTATTTGATTTTTGGGTGGG
[9]
  binding result: binds

B3: 40bpDNA 3'-FAM (dsDNA)
DNA 1: GGATACACAACAGACCGCAACACTCAGATTACTTTTCGCC
DNA 2: GGCGAAAAGTAATCTGAGTGTTGCGGTCTGTTGTGTATCC
[10]
  binding result: binds
APLF [11]
  binding result: no binding
[12]; label: 3'-FAM on strand 1
  binding result: binds
Ku70/80 heterodimer;APLF [13]; label: 3'-FAM on strand 1
  binding result: binds
Ku70/80 heterodimer [14]
  binding result: binds

B4: 25bpDNA 3'-FAM (dsDNA)
DNA 1: AGCATTGACTGGCATCGTAGCATCC
DNA 2: GGATGCTACGATGCCAGTCAATGCT
[12]; label: 3'-FAM on strand 2
  binding result: binds
[15]
  binding result: binds
Ku70/80 heterodimer;APLF [13]; label: 3'-FAM on strand 2
  binding result: binds
Ku70/80 heterodimer [16]
  binding result: binds
